For five substances, Kd results are on record in article PMC7291142.

For this data set, the system named is RSV Gag∆PR (Rous sarcoma virus (Prague C strain)). As to the kind of experiment: FA salt titration.

pKd: −log10 of the molar value.

Regarding MΨ-WT, the pKd is 3.64.

Regarding MΨ-∆L3, the negative-log Kd (pKd) is 1.51.

MΨ-∆SL-B: the pKd was 4.02.

Turning to MΨ-G218C, the pKd was 0.15.

On to MΨ-A197C, for which the pKd is 2.01.
